Source: the nanobody polyreactivity screen of Harvey et al. (2022)

Assay: yeast display, Sf9 membrane polyspecificity reagent, FACS + sequencing; frameworks hold sequencing errors
In short: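 Using colony PCR, genes from sorted yeast display clones were amplified, then sequenced on MiSeq at 2 × 250 and filtered by CDR length. The clones had been stained with 10% biotinylated, detergent-solubilized Sf9 membrane reagent for 1 hour at 4 °C and sorted by FACS into low and high (top ~1%) gates on anti-HA and streptavidin fluorescence. Polyreactivity labels come from the gate of origin.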

Sequence	polyreactivity (PSR sort gate)
QVQLVESGGGLGQAGGSLLLSCAASGSTFKYNAMGWNRKAPGKERELVPAISRGGRTNYADSVKGRFKISRDNAKNTVYLQMNSLKPEDTAVYYCAKDVAGLFHVGALYYYWGQGTQVTVSS	low polyreactivity
QVQLVESGGGLVQAGGSLRLSCPASGRTFYRNAMGWYRQAPGKEREFVAVITWSTGTTYYADSVKGRFTISRDNAKNTVYLQMNSPKPEDTAVYYCAADSQPPHELYESIEHESWGQGTQVTVSS	low polyreactivity
QVQLVESGGGLVQEGGSLRLSCAASGRTFDRYAMGWYRQAPGKERELVAAITWTGGSTYYADSVKGRFTISRDNAKNTVYLQMNSLKPEDTAFYYCNRAPSRPTSKTRLYYWGKGTQVTVSS	high polyreactivity
QVQLVESGGGLVQAGGSLRLSCAASGSTFEVYAMGWYRQAPGKERELVAVINVSDGSTYYADSVKGRFTISRDNAKNTVYLQMNSLKPEDTAVYYCAAYLYNRPYQLTGYYDGYGYWGQGTQVTVSS	low polyreactivity
QVQLLESGGGLVQAGGSLRLSCAASGITFLLNAMGWYRQAPGKERELVAAISRSGGRTYYADSVKGRFTISRDNAKNTVYLQMNSLKPEDTAVYYCAVVTQFGDGYYWGQGTQVTVSS	high polyreactivity
QVQLVESGGGSVQAGGSLRLSCAASGSTFWSYAMGWYRQAPGKERELVAVITGSDGRTFYADSVKGRFTISRDNANNTFFLQMNSLKPEDTAVYYCAADALFRATRFDRSTSEDDYWGQGTQVTVSS	low polyreactivity
QVQLVESGGGLVQAGGSLRLSCAASGSTVWKYVMGWYRQAPGKERELVAAISNSGVNTYYADSVKGRFTISRDNAKNTVYLQMNSLKTEDTAVYYCAADRGGYEYWGQGTQVTVSS	high polyreactivity
QVQLVESGGGLVQAGGSLRLSCAASGLIFRGYAMGWYRQAPGKERELVAAISTTGGSTFYADSVKGRFTISRDNAKNTVYLQMNSLKREDTAVYYCNADWAPTGFSGGYPYDYWGQGTQVTVSS	high polyreactivity
QVQLVESGGGLVQAGGSLRLSCAASGSIFYRNAMGWSRQAPGKERELVAAISASGGSTYYADSVKGRFTISRDNAKNTVYLQMNSLKPEDTAVYYCAVEYRKSRSYAPMGYWGQGTQVTVSS	high polyreactivity
QVQLVESGGGLVQAGGSLRLSCAASGSTFRSNAMGWYRQAPGKERELVAAIRYSGARTYYADSVKGRFTISRDNAKNTVYLQMNSLKPEDTAVYYCAATLYTRTYSWMDYWGQGTQVTVSS	high polyreactivity
QVQLVESGGGLVQAGGSLRLSCAASGRTFAYYAMGWYRQAPGKERELVAAIDSSGGDTYYADSVKGRFTISRDNAKNTVYLQMNSLKPEDTAVYYCAADYYWEMDSWGQGTQVTVSS	low polyreactivity
QVQLVESGGGLVQAGASLRLICAASGITFDWYGMGWYRHAPGKERELVATITGSGDSTNYADSVKGRFTISRDNAQNTVYLQMNSLKPEDTAVYYCAAPTSYDQFGYEYWGQGTIVTVSS	low polyreactivity
QVQLVESGGGLVQAGGSLRLSCAASGFTFAYYAMGWYRQAPGKERELVAAITRGGGRTFYADSVKGRFTISRDNAKNTVYLQMNSLKPEDTAVYYCAAVKDTTNSRGYGYWGQGTQVTVSS	high polyreactivity
QVQLVESGGGLVQAGGSLRLSCAASGSTFRTYAMVWYRQAPGKERELVAAIRSRGGSTYYADSVKGRFTISRDNAKNTVYLQMNSLKPEDTAVYYCNAVPRWSYVDEDSWGQGTQVTVSS	high polyreactivity
QVQLVESGGGLVEAGGSLRLSCAASGGTFKLYAMGWYRPAPGKERELVAAISRRGGSTYYADSVKGRFTISRDNAKNTVYLQMNSLKPDDTALSNCAAPGPTQSTQRGGYWGQGTQVTVSS	high polyreactivity
QVQLVESGGGLVQAGGSLRLSCAASGSIFWSYAMGWYRQAPGKERELVAVINWSGGSTYYADSVKGRFTISRDNAKNTVYLQMTSLKPEDTAVYYCNKDLGPTKRPFTFDYWGQGTQVTVSS	low polyreactivity
QVQLVESGGGLVQAGGSLRLSCAASGITFAYYAMGRSRQAPGKERELVAAIRWSGGDTYYADSVKGRFTISRDNAKNTVYLQMNSLKPEDTAVYYCAADTTWGYDYWGQGTQVTVSS	low polyreactivity
QVQLVESGGGLVQAGGSLRLSCAASGFIFTDNVMGWYRQAPGKERELVAAISRRGGSTYYADSVKGRFTISRDNAKNTVYLQMNSLKPEDTAVYYCNVARQSYLLDYWGQGTQVTVSS	high polyreactivity
QVQLVESGGGLVQAGGSLRLSCAASGSTIDTNAMGWYRQAPGTDRELVAAITSGGNTYADSVKGRFTISRDNAKNTVYLQMNSLKPEDTAVYYCAAEDVYTGWYDYCGQGTQVTVSS	low polyreactivity
QVQLVESCGGIVQAGGSLRLRCAASGLIFVANAMGWYRQAPVKESEMVAAISRYGGITYYADSVKGRFTISRDNAKNTVYLEMNSLKPEDTAVYYCAKNLPSNGHYDYWGQGTQVTVSS	low polyreactivity
QVQLVDSGGGLVQAGGSLRLSCAASGSTFQPYAMGWYRQAPGKERELVAAIRYSGGITYYADSVKGRFTISRDNAKNTVYLQMNSLKPEDTAVYYCAAYGFYGGDYWGQGTQVTVSS	high polyreactivity
QVQLVESGGGLVQAGGSLRLSCAASGGIFSPNAMGWYRQAPGKERELVAAISSNGGSTNYADSVKGRFTISRDHAKNTVYLQMNSLKPEDTAVYYCAGLQKRRSYWRPFYWGQGTQVTVSS	low polyreactivity

Sequence	polyreactivity (PSR sort gate)
QVQLVESAGGLVQAGVSLRLSCDASGRIFRHNTMGWYRQAPGKERELVAAIRYSGGRTYYADSVKGRFTISRDNAKNTVYLQMNSLKPEDTAVYYCAKDTGQGYYWGQGTQVTVSS	high polyreactivity
QVQLVESGGGLVQAGGSLRLSCAASGSTFRANAMGWYRQAPGKESELVADIRFSDGSTYYADSVKGRFTISRDNAKNTVYLQMNSLKPEDTAVYYCAARPSGRGYYLLGYWGQGTQVTVSS	low polyreactivity
QVQLVESGGRLVQAGGSLRLLGAASGRIIYYNAMGWYRPAPGKERELVAAISSIGGSTYADSVKGRFTISRDNAKNTVYLQMNSLKPEDTAVYYCAADGFKRLYTQVAHVRYDYWGQGTQVTVSS	low polyreactivity
QVQHVESVGGLVQAGGSLRLSCAASGSIFDDYAMGWYRPAPGKERELVAAISSSGTSTYYADSVKGRFTISRDNAKNTVYLQMNSLKPEDTAVYYCAARSAILKSGYLMDYWGQGTQVTVSS	low polyreactivity
QVQLVESGGGLVQAGGSLRLSCAASGRIFYYYAMGWYRQAPGKERELVAAISSSGGSTYYADSVKGRYTISRDNAKNTVYLQMNSLKPEDTAVYYCNARTRYDMGYWGQGTQVTVSS	high polyreactivity
QVQLVESGGGLVQAGGSLRLSCAASGRILVYNTMGWSRQAPGKERELVAGIRRGGSTDYADSVKGRFTISRDNAKNTVYLQMNSLNAEDTAVYYCNARYSTGYTKLGYWGQGTQVTVSS	low polyreactivity
QVQLVESGGGLVQAGGSLRLSCAASGITFFAYAMGWYRQAPGKERELVAAISTDGGSTYYADSVKGRFTISRDNAKNTVYLQMNSLKPEDTAVYYCAAKQRYVRTRGMDYWGQGTQVTVSS	high polyreactivity
QVQLVESGGGLVQAGGSLRLSCAASGRIFKSYAMGWYRQSPGKERELVAIIRSSGTTYYADSVKGRFTISRDNAKNTVYLQMNSLKPEDTAVYYCAADPYYWRQFNYDYWGQGTQVTVSS	high polyreactivity
QVQLVESGGGLVQAGGRLRLSFAASGLTFWWYAMGWYRQAPGKERELVAAIDSADITNYADSVKGRFTISRDNAKNTVYLQMNSLKPEDTAVYYCAAGRDYYVVNYVLFLFDYWGQGTQVTVSS	high polyreactivity
QVQLVESGGGLVQAGGSLRLSCAASGRTFTRNAMGWYRQAPGKERELVAAITGRGGSTYYADSVKGRFTISRDNAKNTVYLQMNSLKPEDTAVYYCARFYRYSRDYWGQGTQVTVSS	high polyreactivity
QVQLVESGGGLVQAGGSLRLSCAASGRTFYKYGMGWYRQAPGKERELVARINSNGGSTYYADSVKGRFTISRDNAKNTVYLQMNSLKPEDTAVYYCARSYVRSYGYYYWGKGTQVTVSS	low polyreactivity
QVQRVESGGGLVQAGGSLRLSCDASGFTFAFYAMGWYRQAPGKERELVAAITGSGGSTYYADSVKGRFTISRDNAKNTVYLQMNRLKPEDTAVYYCNTYHQFSYDYWGQGTQVTVSS	high polyreactivity
QVQLVESGGGLVQAGGSLRLSCAASRITLNRNAMGWYRQAPGKERELVARISRRGGTTYYADSVKGRFTISRDNENNTVYLQMNSLKPEDTAVYYFNAGPYGGNPFDYWGQGPQVTVSS	high polyreactivity
QVQLVESGGGLVQAGGSLRLSCAASGITSDQNAMGWYRQAPGKERELVAAISWSGGSTYYADSVKGRFTISRDNAKNTVYLQMNSLKPEDTAVYYCAADIYTAYYEFDYWGQGTQVTVSS	low polyreactivity
QVQLVESGGGLVQAGGSLRLTCAASGRILGYNDMGWYRHAPGKERELVPTSSGTSTYYADSVKGRFTISRDNAKNTVYLQMNSLKPEVTAVYYCNTDYVITLPAYDYWGQGTQVTVSS	low polyreactivity
QVQLVETGGGLVQAGGSLRLSCAASGFTFDVYVMGWYRLAPGKERELVAAISWSGDSTYYADSVKGRFTISRDNAKNTVYLQMNSLKPADCAFSFCAAVGYTSRRPVVRYYYWGQGTQVTVSS	high polyreactivity
QLQLVESGGRIVQAGGSLRLSCAASGITIRYYAMGWYRQAPGKERELVAAITRSGSTTYADSVKGRFTISRDNAKNTVYFQMNSLKPEDTAVYYCAVDFYYLTGGVDYWGQGTQVTVSS	low polyreactivity
QVQLVESGGGLVQAGGSLRLICAASGSIFVYNAMGWYRQAPGKERELVAAISQRGGSTYYADSVKGRFTISRDNAKNTVYLQMNSLKPEDTAVYYCAAGPGDSGDDYWGQGTQVTVSS	low polyreactivity
QVQLVESGGGLVQAGGSLRLSCAASGSTFYYYAIGWYRQAPGKERELVAALSKSGGSTYYADSVKGRFTISRDNAKNTVYLQMNSLNTEDTAVYYCSARWYRFQGYGRPYRGIGGDYWGQGTQVTVSS	high polyreactivity
QVQLVESGGGLVQAGGSLSLSCAASGSIFASYAMGWYRQAPGKERELVAAITSDGNTYYADSVKGRFTISRDNAKNTVYLQMNSLKPEDTAVYYCAADRYSTYPYAKGTEFYYWGQGTQVTVSS	low polyreactivity
QVQLVESGGGLVQAGGSLRLSCAASGRILYNYAMGWYRQAPGKERELVAAISSGGSTNYADSVKGRFTISRDNAKNTVYLQMNSLKPEDTAVYYCAAYRGHSWRGLYRWSDYDYWGQGTQVTVSS	low polyreactivity
